Assay results reported in patent publication US20220153847A1 (Chugai, published 2022).

T1: HLA-DQ2.5 on HLA-DQ2.5-positive PBMC B cells (human, UniProt P01909 24-254; P01920 33-261)
T1 construct: whole, on cells; also called HLA-DQ2.5+ PBMC B cell
T1 MHC II alpha: not shown
T1 MHC II beta: not shown


Key:
[1] = biological target: DQ2.5/omega 1 gliadin peptide on IHW9023 cells (human); experiment: cell-based or functional assay
[2] = biological target: DQ2.5/alpha 2 gliadin peptide on IHW9023 cells (human); experiment: cell-based or functional assay
[3] = biological target: DQ2.5/alpha 1 gliadin peptide on IHW9023 cells (human); experiment: cell-based or functional assay
[4] = biological target: DQ2.5/gamma 4a gliadin peptide on IHW9023 cells (human); experiment: cell-based or functional assay
[5] = biological target: DQ2.5/alpha 1b gliadin peptide on IHW9023 cells (human); experiment: cell-based or functional assay
[6] = biological target: DQ2.5/gamma 1 gliadin peptide on IHW9023 cells (human); experiment: cell-based or functional assay
[7] = biological target: DQ2.5/BC hordein peptide on IHW9023 cells (human); experiment: cell-based or functional assay
[8] = biological target: DQ2.5/omega 2 gliadin peptide on IHW9023 cells (human); experiment: cell-based or functional assay
[9] = biological target: HLA-DQ2.5/33mer gliadin peptide on IHW9088 cells (human); experiment: cell-based or functional assay
[10] = biological target: T2, HLA-DQ2.5/gamma 4b gliadin peptide complex on Ba/F3 cells (human); experiment: FACS, Ba/F3 cells; IC17=0%, DQN0139bb=100%;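 also: flow cytometric binding of anti-HLA-DQ antibodies, each applied at 5 µg/mL for 30 min at room temperature, to Ba/F3 cell lines displaying HLA-DQ–peptide complexes; antibody tested at 5 microgram/mL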
T2 construct: whole, on cells; also called Ba/F3-HLA-DQ2.5/gamma 4b gliadin; HLA-DQ2.5/g4b gliadin
Excerpt: (§1) The binding of anti-HLA-DQ antibodies to Ba/F3-HLA-DQ2.5, Ba/F3-HLA-DQ2.2, Ba/F3-HLA-DQ7.5, Ba/F3-HLA-DQ8, Ba/F3-HLA-DQ5.1, Ba/F3-HLA-DQ6.3, Ba/F3-HLA-DQ7.3, Ba/F3-HLA-DR, Ba/F3-HLA-DP, Ba/F3-HLA-DQ2.5/CLIP, Ba/F3-HLA-DQ2.5/HBV, Ba/F3-HLA-DQ2.5/Salmonella, Ba/F3-HLA-DQ2.5/TPO, Ba/F3-HLA-DQ2.5/M. bovis, Ba/F3-HLA-DQ2.5/alpha 1 gliadin, Ba/F3-HLA-DQ2.5/alpha 2 gliadin, Ba/F3-HLA-DQ2.5/gamma 1 gliadin, Ba/F3-HLA-DQ2.5/gamma 2 gliadin, Ba/F3-HLA-DQ2.5/omega 1 gliadin, Ba/F3-HLA-DQ2.5/omega 2 gliadin, Ba/F3-HLA-DQ2.5/BC hordein, Ba/F3-HLA-DQ2.5/alpha 3 gliadin, Ba/F3-HLA-DQ2.5/alpha 1b gliadin, Ba/F3-HLA-DQ2.5/gamma 4b gliadin, Ba/F3-HLA-DQ2.5/avenin 1, Ba/F3-HLA-DQ2.5/avenin 2, Ba/F3-HLA-DQ2.5/avenin 3, Ba/F3-HLA-DQ2.5/hordein 1, Ba/F3-HLA-DQ2.5/hordein 2, Ba/F3-HLA-DQ2.5/secalin 1, Ba/F3-HLA-DQ2.5/secalin 2, Ba/F3-HLA-DQ2.5/14mer 1, Ba/F3-HLA-DQ2.5/33mer gliadin, Ba/F3-HLA-DQ2.5/26mer gliadin, was tested. 5 microgram/mL of each of the anti-HLA-DQ antibodies was incubated with each cell line for 30 minutes at room temperature and washed with FACS buffer (2% FBS, 2 mM EDTA in PBS).

[11] = biological target: T3, HLA-DQ2.5/avenin 3 peptide complex on Ba/F3 cells (human); experiment: FACS, Ba/F3 cells; IC17=0%, DQN0139bb=100%;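 also: flow cytometric binding of anti-HLA-DQ antibodies, each applied at 5 µg/mL for 30 min at room temperature, to Ba/F3 cell lines displaying HLA-DQ–peptide complexes; antibody tested at 5 microgram/mL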
T3 construct: whole, on cells; also called Ba/F3-HLA-DQ2.5/avenin 3
Excerpt: as §1

[12] = biological target: T4, HLA-DQ2.5/alpha 1b gliadin peptide complex on Ba/F3 cells (human); experiment: FACS, Ba/F3 cells; IC17=0%, DQN0139bb=100%;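 also: flow cytometric binding of anti-HLA-DQ antibodies, each applied at 5 µg/mL for 30 min at room temperature, to Ba/F3 cell lines displaying HLA-DQ–peptide complexes; antibody tested at 5 microgram/mL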
T4 construct: whole, on cells; also called Ba/F3-HLA-DQ2.5/alpha 1b gliadin; HLA-DQ2.5/a1b gliadin
Excerpt: as §1

[13] = biological target: T5, HLA-DQ2.5/26mer gliadin peptide complex on Ba/F3 cells (human); experiment: FACS, Ba/F3 cells; IC17=0%, DQN0139bb=100%;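 also: flow cytometric binding of anti-HLA-DQ antibodies, each applied at 5 µg/mL for 30 min at room temperature, to Ba/F3 cell lines displaying HLA-DQ–peptide complexes; antibody tested at 5 microgram/mL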
T5 construct: whole, on cells; also called Ba/F3-HLA-DQ2.5/26mer gliadin
Excerpt: as §1

[14] = biological target: T6, HLA-DQ2.5/avenin 1 peptide complex on Ba/F3 cells (human); experiment: FACS, Ba/F3 cells; IC17=0%, DQN0139bb=100%
T6 construct: whole, on cells; also called Ba/F3-HLA-DQ2.5/avenin 1
Excerpt: as §1

[15] = biological target: T7, HLA-DQ2.5/omega 1 gliadin peptide complex on Ba/F3 cells (human); experiment: FACS, Ba/F3 cells; IC17=0%, DQN0139bb=100%
T7 construct: whole, on cells; also called Ba/F3-HLA-DQ2.5/omega 1 gliadin; HLA-DQ2.5/w1 gliadin
Excerpt: as §1

[16] = biological target: T8, HLA-DQ2.5/secalin 1 peptide complex on Ba/F3 cells (human); experiment: FACS, Ba/F3 cells; IC17=0%, DQN0139bb=100%
T8 construct: whole, on cells; also called Ba/F3-HLA-DQ2.5/secalin 1
Excerpt: as §1

[17] = biological target: T9, HLA-DQ2.5/gamma 1 gliadin peptide complex on Ba/F3 cells (human); experiment: FACS, Ba/F3 cells; IC17=0%, DQN0139bb=100%
T9 construct: whole, on cells; also called Ba/F3-HLA-DQ2.5/gamma 1 gliadin; HLA-DQ2.5/g1 gliadin
Excerpt: as §1

[18] = biological target: T10, HLA-DQ2.5/avenin 2 peptide complex on Ba/F3 cells (human); experiment: FACS, Ba/F3 cells; IC17=0%, DQN0139bb=100%
T10 construct: whole, on cells; also called Ba/F3-HLA-DQ2.5/avenin 2
Excerpt: as §1

[19] = biological target: T11, HLA-DQ2.5/alpha 2 gliadin peptide complex on Ba/F3 cells (human); experiment: FACS, Ba/F3 cells; IC17=0%, DQN0139bb=100%
T11 construct: whole, on cells; also called Ba/F3-HLA-DQ2.5/alpha 2 gliadin; HLA-DQ2.5/a2 gliadin
Excerpt: as §1

[20] = biological target: T12, HLA-DQ2.5/33mer gliadin peptide complex on Ba/F3 cells (human); experiment: FACS, Ba/F3 cells; IC17=0%, DQN0139bb=100%
T12 construct: whole, on cells; also called Ba/F3-HLA-DQ2.5/33mer gliadin
Excerpt: as §1

[21] = biological target: T13, HLA-DQ2.5/hordein 1 peptide complex on Ba/F3 cells (human); experiment: FACS, Ba/F3 cells; IC17=0%, DQN0139bb=100%
T13 construct: whole, on cells; also called Ba/F3-HLA-DQ2.5/hordein 1
Excerpt: as §1

[22] = biological target: T14, HLA-DQ2.5/secalin 2 peptide complex on Ba/F3 cells (human); experiment: FACS, Ba/F3 cells; IC17=0%, DQN0139bb=100%
T14 construct: whole, on cells; also called Ba/F3-HLA-DQ2.5/secalin 2
Excerpt: as §1

[23] = biological target: T15, HLA-DQ2.5/alpha 1 gliadin peptide complex on Ba/F3 cells (human); experiment: FACS, Ba/F3 cells; IC17=0%, DQN0139bb=100%
T15 construct: whole, on cells; also called Ba/F3-HLA-DQ2.5/alpha 1 gliadin; HLA-DQ2.5/a1 gliadin
Excerpt: as §1

[24] = biological target: T16, HLA-DQ2.5/alpha 3 gliadin peptide complex on Ba/F3 cells (human); experiment: FACS, Ba/F3 cells; IC17=0%, DQN0139bb=100%
T16 construct: whole, on cells; also called Ba/F3-HLA-DQ2.5/alpha 3 gliadin; HLA-DQ2.5/a3 gliadin
Excerpt: as §1

[25] = biological target: T1, HLA-DQ2.5 on HLA-DQ2.5-positive PBMC B …; experiment: FACS, PBMC B cells; IC17=0%, DQN0139bb=100%
[26] = biological target: DQ2.5/gamma 2 gliadin peptide on IHW9023 cells (human); experiment: cell-based or functional assay
[27] = biological target: T17, HLA-DQ2.5/BC hordein peptide complex on Ba/F3 cells (human); experiment: FACS, Ba/F3 cells; IC17=0%, DQN0139bb=100%
T17 construct: whole, on cells; also called Ba/F3-HLA-DQ2.5/BC hordein
Excerpt: as §1

[28] = biological target: T18, HLA-DQ2.5/14mer 1 peptide complex on Ba/F3 cells (human); experiment: FACS, Ba/F3 cells; IC17=0%, DQN0139bb=100%
T18 construct: whole, on cells; also called Ba/F3-HLA-DQ2.5/14mer 1
Excerpt: as §1

[29] = biological target: T19, HLA-DQ2.5/omega 2 gliadin peptide complex on Ba/F3 cells (human); experiment: FACS, Ba/F3 cells; IC17=0%, DQN0139bb=100%
T19 construct: whole, on cells; also called Ba/F3-HLA-DQ2.5/omega 2 gliadin; HLA-DQ2.5/w2 gliadin
Excerpt: as §1

[30] = biological target: T20, HLA-DQ2.5/gamma 2 gliadin peptide complex on Ba/F3 cells (human); experiment: FACS, Ba/F3 cells; IC17=0%, DQN0139bb=100%
T20 construct: whole, on cells; also called Ba/F3-HLA-DQ2.5/gamma 2 gliadin; HLA-DQ2.5/g2 gliadin
Excerpt: as §1

[31] = biological target: T21, HLA-DQ2.5/CLIP peptide complex on Ba/F3 cells (human); experiment: FACS, Ba/F3 cells; IC17=0%, DQN0139bb=100%
T21 construct: whole, on cells; also called Ba/F3-HLA-DQ2.5/CLIP
T21 sequence (P04233 96-124, chain 2 of 2, other chains not shown): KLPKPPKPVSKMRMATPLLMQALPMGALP
Excerpt: as §1

[32] = biological target: T22, HLA-DQ2.5/hordein 2 peptide complex on Ba/F3 cells (human); experiment: FACS, Ba/F3 cells; IC17=0%, DQN0139bb=100%
T22 construct: whole, on cells; also called Ba/F3-HLA-DQ2.5/hordein 2
Excerpt: as §1

Binder	IC50, Jurkat NFAT-Luc T cell activation [1]	IC50, Jurkat NFAT-Luc T cell activation [2]	IC50, Jurkat NFAT-Luc T cell activation [3]	IC50, Jurkat NFAT-Luc T cell activation [4]	IC50, Jurkat NFAT-Luc T cell activation [5]	IC50, Jurkat NFAT-Luc T cell activation [6]	IC50, Jurkat NFAT-Luc T cell activation [7]	IC50, Jurkat NFAT-Luc T cell activation [8]	% MFI [10]	% MFI [12]	% MFI [13]	% MFI [14]	% MFI [15]	% MFI [17]	% MFI [18]	% MFI [19]	% MFI [20]	% MFI [21]	% MFI [22]	% MFI [23]	also measured
DQN0139bb (antibody, V domains shown) VH: QSLEESGGRLVTPGTALTLTCTVSGFSLSSYAMGWVRQAPGKGLEYIGWTSPGDSAYYASWTKGRFTISRTSTTVELKITSPTTEDTATYFCARDAAYIGHWAFNLWGPGTLVTVSS VL: DVVMTQTPASVSAPVGGTVTINCQASESIYSNLAWYQQKPGQPPKLLIYGASTLESGVPSRVKGSGYGTQFTLTISDLECADAATYYCQQYYGSSSTAFTFGGGTKVEIK	0.0719 µg/mL	0.0605 µg/mL	0.0735 µg/mL	0.0769 µg/mL	0.0765 µg/mL	0.119 µg/mL	0.0759 µg/mL	0.248 µg/mL													IC50 (read off the curve) [9]: ~0.03 microgram/mL
DQN0344xx (antibody, V domains shown) VH: QSLEESGGGLVKPGGTLTLTCTASGFSFSSSYWMCWVRQAPGKGLEWVACVYGGSDTTYYASWTKGRFTISKGSSTTVALQVTSLTAADTATYFCARDPLNYYYYGELNLWGPGTLVTVSS VL: AVVLTQTASPVSAAVGGTVTIRCQATENIYSGLAWYQQKPGQPPKVLIYYVSTLASGVPSRFKGSGSGTEYTLTISGVQCDDAATYYCQTYHDISNVTFGGGTKVEIK	0.0124 µg/mL	0.00082 µg/mL	0.00998 µg/mL		0.0272 µg/mL				1%	66.6%	3.2%	60.9%	49.5%	0.4%	48.6%	69.5%	107%	18.8%	37.6%	77.1%	% MFI [11]: 48.4%; % MFI [16]: 52.2%; % MFI [24]: 42.2%
DQN0385ee (antibody, V domains shown, also called DQN0385xx) VH: QEQLEESGGDLVKPGASLTLTCTASGFSFYSSYWICWVRQAPGKGLEWIACIDTGSGSIDYASWVNGRFTISKTSSTTVTLQMTSLTVADTATYFCARDIGIDYNFWGPGTLVTVSS VL: AFELTQTPSFVEAAVGGTVTIKCQATQSISSYLNWYQQKPGQPPKLLIYYASTLASGVPSRFKGSGSGTEFSLTISGVECADAATYYCHYGISYVSFGGGTKVEIK		0.000264 µg/mL		0.381 µg/mL	0.64 µg/mL	0.0217 µg/mL	0.0164 µg/mL	0.000758 µg/mL	53.6%	20.3%	70.8%	19.1%	16.5%	57.7%	28%	70.9%	56.2%	18.2%	32.5%	9.7%	% MFI [25]: 1%; IC50, Jurkat NFAT-Luc T cell activation [26]: 4.9 µg/mL; % MFI [27]: 61.8%; % MFI [28]: 70.7%; % MFI [29]: 53%; % MFI [30]: 20.6%; % MFI [31]: 4.4%; % MFI [32]: 71.4%; % MFI [24]: 59.7%
